The source of these data is paper PMC7458460 (Science Advances, 2020).

As usually defined, the Kd is the free concentration of one partner at which half of the binding sites on the other are occupied at equilibrium, for simple one-to-one binding. The low end stands for higher affinity, the high end for lower affinity.

The target in this test is CN391 (CNA_(1–391)/CNB_(1–170)) (UniProt Q08209 1-391; P63098 1-170). Nature of the test: ITC. Background: ITC needs no label: the signal is the heat of the interaction.
CN391 (CNA_(1–391)/CNB_(1–170)), sequence (Q08209 1-391, chain 1 of 2): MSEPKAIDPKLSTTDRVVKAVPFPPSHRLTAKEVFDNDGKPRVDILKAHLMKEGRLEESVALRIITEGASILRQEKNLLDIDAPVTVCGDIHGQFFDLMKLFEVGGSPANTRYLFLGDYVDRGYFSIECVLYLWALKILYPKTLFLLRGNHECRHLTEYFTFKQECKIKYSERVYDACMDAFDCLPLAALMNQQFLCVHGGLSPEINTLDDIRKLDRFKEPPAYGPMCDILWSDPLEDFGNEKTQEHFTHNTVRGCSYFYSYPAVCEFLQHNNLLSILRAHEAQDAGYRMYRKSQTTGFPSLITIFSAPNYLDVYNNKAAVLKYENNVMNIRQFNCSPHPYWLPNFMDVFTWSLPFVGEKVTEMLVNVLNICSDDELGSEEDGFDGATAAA
CN391 (CNA_(1–391)/CNB_(1–170)), sequence (P63098 whole entry, chain 2 of 2): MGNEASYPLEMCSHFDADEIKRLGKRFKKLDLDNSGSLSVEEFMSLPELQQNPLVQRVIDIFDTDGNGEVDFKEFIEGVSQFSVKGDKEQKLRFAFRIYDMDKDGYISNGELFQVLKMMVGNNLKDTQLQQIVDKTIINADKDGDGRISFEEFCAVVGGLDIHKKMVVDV

B1: RCAN1 CN-binding domain (residues 89 to 197) (domain or fragment)
chain: not shown
Take B1: binding was characterised by a dissociation constant (Kd) of 16 ± 5 nM and the dH is -30.7 ± 0.8 kcal/mol.

B2: p38-phosphorylated RCAN1 (residues 89 to 197) (domain or fragment)
chain: not shown
modifications: pS108, pS112, pT124, pT153, pT192 (pT152 partially, much more slowly)
Turning to B2, the Kd is 429 ± 85 nM and the dH is -32.4 ± 1.6 kcal/mol.
